Measurements published in article PMC3717379 (Biochemistry, 2013).
Read-outs that look alike come from different tables or passages of the source. No end group written: not given here. IANBD = IANBD fluorescent probe (code IAN) attached to the cysteine

Experiments:
[1] = molecular target: SP22, 22 residue long E. coli alkaline phosphatase signal peptide with cysteine at position 22 (E. coli); experiment: fluorescence polarisation
[2] = molecular target: monocysteine SecA mutant SecA-458C (E. coli) (UniProt P10408); experiment: FRET or BRET
SecA-506C = SecA-506C (Escherichia coli, UniProt P10408, C885S/C887S/C896S/C98S/M506C); assay type: binding
wildtype SecA = wildtype SecA (Escherichia coli, UniProt P10408); experiment: Fluorescence anisotropy binding of IAN-labeled signal peptide to wildtype SecA
SecA-340C = SecA-340C (Escherichia coli, UniProt P10408, C885S/C887S/C896S/C98S/T340C); assay type: binding
SecA-458C = SecA-458C (Escherichia coli, UniProt P10408, C885S/C887S/C896S/C98S/S458C); assay type: binding
[3] = molecular target: monocysteine SecA mutant SecA-402C (E. coli) (UniProt P10408); experiment: FRET or BRET
[4] = molecular target: monocysteine SecA mutant SecA-696C (E. coli) (UniProt P10408); experiment: FRET or BRET
SecA (Escherichia coli) [5] = molecular target: SecA (Escherichia coli) (UniProt P10408); settings: cited from earlier work
SecA (Escherichia coli) [6] = molecular target: SecA (Escherichia coli) (UniProt P10408); settings: cited from earlier work; remark: listed apart in the source
[7] = molecular target: monocysteine SecA mutant SecA-340C (E. coli) (UniProt P10408); experiment: FRET or BRET
[8] = molecular target: monocysteine SecA mutant SecA-506C (E. coli) (UniProt P10408); experiment: FRET or BRET
[9] = molecular target: monocysteine SecA mutant SecA-59C (E. coli) (UniProt P10408); experiment: FRET or BRET
[10] = molecular target: wildtype SecA (Escherichia coli) (E. coli, UniProt P10408 1-901); experiment: fluorescence polarisation

For “monocysteine SecA mutant SecA-458C (from UniProt P10408 1-901) (natural protein)”, the Kd [1] was 3 µM, the E FRET with SP22 (AF488-AF568 dye pair) [2] was 0.45 and the E FRET with SP41 (AF488-AF568 dye pair) [2] was 0.45.

In the case of “MCKQSTIALALLPLLYTPVTKARTPEMPVLENRAAQGDITA-NH2 [SP41]”, the Kd (SecA-506C) is reported as 6.3 ± 1 µM, the Kd (wildtype SecA) is reported as 6.2 ± 0.8 µM and the Kd (SecA-340C) is reported as 6.2 ± 4.3 µM. It also gave a Kd (SecA-458C) of 4.8 ± 0.6 µM.

Molecule “monocysteine SecA mutant SecA-402C (from UniProt P10408 1-901) (natural protein)” has an E FRET (AF488-AF568 dye pair) [3] of 0.31 and an E FRET (IAE-IAN dye pair) [3] of 0.19.

With “monocysteine SecA mutant SecA-696C (from UniProt P10408 1-901) (natural protein)” the Kd [1] was 2.5 µM, the E FRET (AF488-AF568 dye pair) [4] was 0.23 and the E FRET with SP22 (AF568-AF647 dye pair) [4] was 0.42. It also gave an E FRET with SP41 (AF568-AF647 dye pair) [4] of 0.41.

For MKQSTIALALLPLLFTPVTKAC-NH2 [SP22], the Kd (SecA-506C) was 1.5 ± 0.7 µM, the Kd (SecA-340C) was 1.1 ± 0.4 µM and the Kd (SecA-458C) was 3 ± 1.7 µM.

For SecA (from UniProt P10408), the Kd (SecA (Escherichia coli) [5]) is given as 0.001 µM and the Kd (SecA (Escherichia coli) [6]) is given as 2.2 µM.

“monocysteine SecA mutant SecA-340C (from UniProt P10408 1-901) (natural protein)” showed a Kd [1] of 1.1 µM, an E FRET (AF488-AF568 dye pair) [7] of 0.78 and an E FRET (IAE-IAN dye pair) [7] of 0.12. It also gave an E FRET with SP22 (AF488-AF568 dye pair) [7] of 0.64 and an E FRET with SP41 (AF488-AF568 dye pair) [7] of 0.23.

“monocysteine SecA mutant SecA-506C (from UniProt P10408 1-901) (natural protein)” gave a Kd [1] of 1.5 µM, an E FRET with SP22 (AF568-AF647 dye pair) [8] of 0.67 and an E FRET with SP41 (AF568-AF647 dye pair) [8] of 0.69.

“monocysteine SecA mutant SecA-59C (from UniProt P10408 1-901) (natural protein)” showed an E FRET (IAE-IAN dye pair) [3] of 0.4, an E FRET (AF568-AF647 dye pair) [9] of 1 and an E FRET (IAE-IAN dye pair) [9] of 0.38.

MKQSTIALALLPLLFTPVTKAC(IANBD)-NH2 [SP22, 22 residue long E. coli alkaline phosphatase signal peptide with cysteine at position 22] gave a Kd [10] of 1.4 ± 0.2 µM.
